One molecule from US20240288446A1, “METHOD FOR DIAGNOSING FIBRINOLYTIC INSUFFICIENCY RELATED TO NEUTROPHIL EXTRACELLULAR TRAPS” (Hôpitaux Universitaires de Strasbourg, priority 2019, published 2024) can be followed below.

The subject of this experiment is septic shock plasma euglobulin fraction on fibrin-bound tPA. The experiment can be described thus: Plasmin formation on tPA-fibrin surfaces from euglobulin fraction of septic shock plasma supplemented with plasminogen. The class given is biochemical, human. The note with it: plasminogen normalized to 1.5 μM. The procedure: FIG. 5 represents the Fibrinolytic activity of plasma isolated from septic shock. The fibrinolytic activity of plasma was tested by incubating the corresponding euglobulin fraction with fibrin surfaces to which tPA (50 iu/ml) was previously bound. The euglobulin fraction contains plasminogen and plasminogen fragments bearing K1, K4 and K5 as identified by mass spectrometry (see text and Supplemental file). The amount of plasmin formed was quantified by measuring the change in absorbance at A405 nm using a chromogenic substrate selective for plasmin as indicated in FIG. 3. […]
Plasminogen was quantified with a functional activity assay as described with modifications.(41) Briefly, plasmas were diluted 1:50 in assay buffer (Phosphate 80 mM, NaCl 50 mM, BSA 2 mg/ml), supplemented with 75 i.u./ml urokinase, 1 mM tranexamic acid and 0.75 mM of the plasmin-selective chromogenic substrate in a final volume of 50 μl. […] Plasminogen fragments present in plasma were initially detected by Western blot as indicated above. […] Plasmin formation on fibrin matrices was measured using the euglobulin fraction from healthy control and patient plasmas as source of plasminogen as indicated above. […] Kinetics of plasminogen transformation into plasmin was followed during 1 h by measuring the release of pNA at A405 nm and the initial velocity of the reactions were calculated as indicated above. […]

B1: purified plasminogen: Human Glu-plasminogen, purified, over 99% pure; 92-kDa single-chain proenzyme (SEQ ID NO 1) (protein, listed as Homo sapiens)
chain: EPLDDYVNTQGASLFSVTKKQLGAGSIEECAAKCEEDEEFTCRAFQYHSKEQQCVIMAENRKSSIIIRMRDVVLFEKKVYLSECKTGNGKNYRGTMSKTKNGITCQKWSSTSPHRPRFSPATHPSEGLEENYCRNPDNDPQGPWCYTTDPEKRYDYCDILECEEECMHCSGENYDGKISKTMSGLECQAWDSQSPHAHGYIPSKFPNKNLKKNYCRNPDRELRPWCFTTDPNKRWELCDIPRCTTPPPSSGPTYQCLKGTGENYRGNVAVTVSGHTCQHWSAQTPHTHNRTPENFPCKNLDENYCRNPDGKRAPWCHTTNSQVRWEYCKIPSCDSSPVSTEQLAPTAPPELTPVVQDCYHGDGQSYRGTSSTTTTGKKCQSWSSMTPHRHQKTPENYPNAGLTMNYCRNPDADKGPWCFTTDPSVRWEYCNLKKCSGTEASVVAPPPVVLLPDVETPSEEDCMFGNGKGYRGKRATTVTGTPCQDWAAQEPHRHSIFTPETNPRAGLEKNYCRNPDGDVGGPWCYTTNPRKLYDYCDVPQCAAPSFDCGKPQVEPKKCPGRVVGGCVAHPHSWPWQVSLRTRFGMHFCGGTLISPEWVLTAAHCLEKSPRPSSYKVILGAHQEVNLEPHVQEIEVSRLFLEPTRKDIALLKLSSPAVITDKVIPACLPSPNYVVADRTECFITGWGETQGTFGAGLLKEAQLPVIENKVCNRYEFLNGRVQSTELCAGHLAGGTDSCQGDSGGPLVCFEKDKYILQGVTSWGLGCARPNKPGVYVRVSRFVTWIEGVMRNN
Take B1: the “amount of plasmin formed after plasminogen supplementation” value (plasma samples S1, S3, S5) was “increased with a trend to normality” and the “amount of plasmin formed after plasminogen supplementation” value (plasma samples S2, S4, S6) is given as “insufficient or scant response”.
